Experimental data: the supplement of paper PMC9112550, “Optimization of the antimicrobial peptide Bac7 by deep mutational scanning” (BMC Biology, 2022)

System: Escherichia coli TOP10
Experiment: shrunken log2 fold change of peptide-encoding DNA abundance (4.5 h post-induction vs induction); higher = less antimicrobial activity (less host growth inhibition)
Conditions: time post-induction: 4.5 h; library: site-saturation at positions 5, 18, 19, 20
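Further: peptides expressed intracellularly from a pBAD plasmid library in pooled LB shake-flask culture, induced with 0.3% L-arabinose, DNA abundance read by NGS, three biological replicates, DESeq2 with apeglm shrinkage.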

Sequence | shrunken log2 fold change
RRIRPRPPRLPRPRPRPICVPRP | -0.215
RRIRCRPPRLPRPRPRPTPTPRP | 0.982
RRIRRRPPRLPRPRPRPAEVPRP | 0.219
RRIRERPPRLPRPRPRPATTPRP | -0.0752
RRIRYRPPRLPRPRPRPYILPRP | -0.264
RRIRLRPPRLPRPRPRPSTRPRP | 0.174
RRIRARPPRLPRPRPRPNTFPRP | -0.0206
RRIRKRPPRLPRPRPRPRIPPRP | 0.11
RRIRARPPRLPRPRPRPKWKPRP | -0.291
RRIRWRPPRLPRPRPRPCTHPRP | 0.0298
RRIRWRPPRLPRPRPRPDVEPRP | 0.182
RRIRQRPPRLPRPRPRPFMVPRP | -0.686
RRIRSRPPRLPRPRPRPGQGPRP | 0.0895
RRIRCRPPRLPRPRPRPQSIPRP | -0.394
RRIRKRPPRLPRPRPRPSYKPRP | -0.692
RRIRHRPPRLPRPRPRPWGWPRP | 0.284
RRIRPRPPRLPRPRPRPVPCPRP | 0.0816
RRIRQRPPRLPRPRPRPDGEPRP | 0.117
RRIRGRPPRLPRPRPRPHESPRP | 0.784
RRIRYRPPRLPRPRPRPKFKPRP | -0.319
RRIRNRPPRLPRPRPRPSKMPRP | -0.22
RRIRHRPPRLPRPRPRPAICPRP | -0.218
RRIRHRPPRLPRPRPRPDVIPRP | 0.0849
RRIRPRPPRLPRPRPRPLAKPRP | 0.261
RRIRIRPPRLPRPRPRPQWVPRP | -0.023

Sequence | shrunken log2 fold change
RRIRERPPRLPRPRPRPWSRPRP | 0.0483
RRIRIRPPRLPRPRPRPQSVPRP | -0.295
RRIRRRPPRLPRPRPRPNLDPRP | -0.152
RRIRKRPPRLPRPRPRPFLNPRP | 0.00977
RRIRFRPPRLPRPRPRPPLKPRP | 0.266
RRIRARPPRLPRPRPRPSAHPRP | 0.101
RRIRTRPPRLPRPRPRPPNKPRP | -0.275
RRIRWRPPRLPRPRPRPHRSPRP | -0.243
RRIRQRPPRLPRPRPRPHANPRP | -0.671
RRIRQRPPRLPRPRPRPLSLPRP | -0.0321
RRIRQRPPRLPRPRPRPSNWPRP | -0.227
RRIRGRPPRLPRPRPRPFCSPRP | 0.143
RRIRSRPPRLPRPRPRPICQPRP | -0.00676
RRIRGRPPRLPRPRPRPDFVPRP | 0.0455
RRIRMRPPRLPRPRPRPANNPRP | -0.264
RRIRWRPPRLPRPRPRPQGLPRP | 0.00602
RRIRERPPRLPRPRPRPLESPRP | -0.0735
RRIRHRPPRLPRPRPRPNVQPRP | -1.87
RRIRIRPPRLPRPRPRPSLDPRP | -0.564
RRIRIRPPRLPRPRPRPSPSPRP | 0.0467
RRIRHRPPRLPRPRPRPGVCPRP | -0.263
RRIRDRPPRLPRPRPRPNSWPRP | -0.12
RRIRTRPPRLPRPRPRPGGAPRP | 0.38
RRIRIRPPRLPRPRPRPKYMPRP | -0.566
RRIRKRPPRLPRPRPRPLHDPRP | 0.169

Sequence | shrunken log2 fold change
RRIRHRPPRLPRPRPRPDMTPRP | -0.06
RRIRIRPPRLPRPRPRPWLDPRP | -0.353
RRIRRRPPRLPRPRPRPLQGPRP | 0.0475
RRIRQRPPRLPRPRPRPRDFPRP | 0.984
RRIRCRPPRLPRPRPRPMWYPRP | -0.414
RRIRHRPPRLPRPRPRPIHWPRP | -0.0298
RRIRGRPPRLPRPRPRPHANPRP | 0.361
RRIRERPPRLPRPRPRPKAFPRP | 0.0124
RRIRARPPRLPRPRPRPIWFPRP | 0.225
RRIRFRPPRLPRPRPRPDDGPRP | -0.0366
RRIRGRPPRLPRPRPRPNHKPRP | -0.195
RRIRARPPRLPRPRPRPVPRPRP | 0.536
RRIRCRPPRLPRPRPRPRGSPRP | 0.511
RRIRWRPPRLPRPRPRPSCVPRP | 0.121
RRIRGRPPRLPRPRPRPVPQPRP | 0.618
RRIRRRPPRLPRPRPRPQEFPRP | 0.041
RRIRDRPPRLPRPRPRPHSHPRP | -0.19
RRIRLRPPRLPRPRPRPWLKPRP | 0.0827
RRIRKRPPRLPRPRPRPVLMPRP | 0.471
RRIRSRPPRLPRPRPRPHCIPRP | 0.021
RRIRMRPPRLPRPRPRPMRMPRP | 0.759
RRIRFRPPRLPRPRPRPEEFPRP | -0.0316
RRIRPRPPRLPRPRPRPMWMPRP | 0.000224
RRIRERPPRLPRPRPRPMYTPRP | -0.469
RRIRIRPPRLPRPRPRPYQPPRP | 0.0299

Sequence | shrunken log2 fold change
RRIRFRPPRLPRPRPRPIWMPRP | -0.226
RRIRPRPPRLPRPRPRPSYLPRP | -0.562
RRIRARPPRLPRPRPRPYVVPRP | -0.623
RRIRRRPPRLPRPRPRPCIQPRP | -0.271
RRIRKRPPRLPRPRPRPEPGPRP | 0.608
RRIRNRPPRLPRPRPRPTDSPRP | -0.21
RRIRCRPPRLPRPRPRPYMDPRP | 0.0215
RRIRCRPPRLPRPRPRPAMCPRP | -0.144
RRIRERPPRLPRPRPRPQGEPRP | -0.0686
RRIRLRPPRLPRPRPRPGVDPRP | 0.411
RRIRKRPPRLPRPRPRPKDNPRP | 0.297
RRIRGRPPRLPRPRPRPFFPPRP | 0.154
RRIRNRPPRLPRPRPRPTRKPRP | 0.623
RRIRFRPPRLPRPRPRPSVSPRP | -0.2
RRIRFRPPRLPRPRPRPWPVPRP | 0.139
RRIRLRPPRLPRPRPRPLYHPRP | -0.648
RRIRQRPPRLPRPRPRPRITPRP | 1.06
RRIRDRPPRLPRPRPRPRWSPRP | 0.264
RRIRSRPPRLPRPRPRPDSCPRP | -0.0234
RRIRDRPPRLPRPRPRPECNPRP | 0.741
RRIRLRPPRLPRPRPRPKLMPRP | -0.162
RRIRCRPPRLPRPRPRPRAFPRP | -0.0361
RRIRIRPPRLPRPRPRPEVGPRP | 0.0138
RRIRFRPPRLPRPRPRPYPQPRP | -0.356
RRIRGRPPRLPRPRPRPYHNPRP | -0.267

Sequence | shrunken log2 fold change
RRIRERPPRLPRPRPRPWAPPRP | -0.0362
RRIRRRPPRLPRPRPRPKQHPRP | 0.302
RRIRVRPPRLPRPRPRPHRCPRP | 0.0572
RRIRYRPPRLPRPRPRPNPFPRP | -0.0444
RRIRLRPPRLPRPRPRPSSKPRP | -0.524
RRIRMRPPRLPRPRPRPENQPRP | 1.86
RRIRHRPPRLPRPRPRPRLSPRP | -0.0962
RRIRRRPPRLPRPRPRPNLHPRP | -0.288
RRIRWRPPRLPRPRPRPIDPPRP | -0.193
RRIRSRPPRLPRPRPRPCKGPRP | -0.3
RRIRTRPPRLPRPRPRPYRDPRP | -0.383
RRIRNRPPRLPRPRPRPLPNPRP | -0.0288
RRIRLRPPRLPRPRPRPKPQPRP | 0.212
RRIRGRPPRLPRPRPRPMYIPRP | -0.396
RRIRIRPPRLPRPRPRPSIPPRP | -0.867
RRIRQRPPRLPRPRPRPAMAPRP | -0.134
RRIRGRPPRLPRPRPRPRMAPRP | 1.06
RRIRWRPPRLPRPRPRPRFTPRP | 0.307
RRIRWRPPRLPRPRPRPDKGPRP | 0.0389
RRIRRRPPRLPRPRPRPLWQPRP | 0.318
RRIRGRPPRLPRPRPRPGHKPRP | 0.173
RRIRQRPPRLPRPRPRPQQLPRP | -0.0824
RRIRYRPPRLPRPRPRPYMYPRP | -0.23
RRIRRRPPRLPRPRPRPWGCPRP | 0.0658
RRIRPRPPRLPRPRPRPDGQPRP | 0.204

Sequence | shrunken log2 fold change
RRIRTRPPRLPRPRPRPSVCPRP | -0.203
RRIRERPPRLPRPRPRPVTMPRP | -0.433
RRIRDRPPRLPRPRPRPESRPRP | 0.0324
RRIRDRPPRLPRPRPRPAYPPRP | 0.147
RRIRQRPPRLPRPRPRPYVIPRP | 0.0316
RRIRPRPPRLPRPRPRPRVPPRP | 0.342
RRIRDRPPRLPRPRPRPYRHPRP | -0.0137
RRIRCRPPRLPRPRPRPQDTPRP | -0.313
RRIRSRPPRLPRPRPRPNDLPRP | -0.23
RRIRMRPPRLPRPRPRPRHIPRP | 0.0163
RRIRARPPRLPRPRPRPIECPRP | 0.157
RRIRYRPPRLPRPRPRPNNAPRP | -1.1
RRIRNRPPRLPRPRPRPGYTPRP | -0.501
RRIRKRPPRLPRPRPRPRWKPRP | 0.702
RRIRIRPPRLPRPRPRPWLCPRP | -0.121
RRIRDRPPRLPRPRPRPYIDPRP | -0.0251
RRIRCRPPRLPRPRPRPCVSPRP | -0.0805
RRIRCRPPRLPRPRPRPQMRPRP | 0.611
RRIRMRPPRLPRPRPRPLSDPRP | 0.861
RRIRARPPRLPRPRPRPTKKPRP | 0.0778
RRIRQRPPRLPRPRPRPYQSPRP | -0.176
RRIRARPPRLPRPRPRPHKVPRP | 0.31
RRIRHRPPRLPRPRPRPSRPPRP | 0.323
RRIRMRPPRLPRPRPRPNQCPRP | -0.198
RRIRRRPPRLPRPRPRPWMDPRP | -0.196
